This passage reports binding results from article PMC10132618.

Series [1] concerns the target T1, GST-Fob1 (prep also contains free Fob1) (Saccharomyces cerevisiae) (UniProt O13329).
T1 sequence: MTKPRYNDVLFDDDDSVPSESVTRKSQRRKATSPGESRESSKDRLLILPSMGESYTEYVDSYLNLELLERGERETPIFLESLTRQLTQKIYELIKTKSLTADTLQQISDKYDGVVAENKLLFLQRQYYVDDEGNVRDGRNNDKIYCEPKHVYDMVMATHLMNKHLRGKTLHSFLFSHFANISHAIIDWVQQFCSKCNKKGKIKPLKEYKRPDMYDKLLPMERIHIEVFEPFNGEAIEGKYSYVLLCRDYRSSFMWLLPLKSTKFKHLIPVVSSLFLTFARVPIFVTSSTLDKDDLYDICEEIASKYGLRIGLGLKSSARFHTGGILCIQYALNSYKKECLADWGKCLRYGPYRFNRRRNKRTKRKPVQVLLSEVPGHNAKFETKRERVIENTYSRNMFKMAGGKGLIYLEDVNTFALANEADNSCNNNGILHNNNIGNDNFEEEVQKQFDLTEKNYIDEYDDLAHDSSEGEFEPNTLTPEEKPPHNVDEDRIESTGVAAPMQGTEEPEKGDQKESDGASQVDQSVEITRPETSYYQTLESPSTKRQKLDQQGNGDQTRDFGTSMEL
Briefly: EMSA. The note with it: 10 mM Tris pH 7.5, 1 mM EDTA, 0.1 M KCl, 0.1 mM DTT, 5% glycerol, 20 ul, 30 C 30 min; 6% PAGE in 0.5X TBE. (In EMSA bound probe runs differently from free probe, usually more slowly.)

Series [2] deals with T1, GST-Fob1 (prep also contains free Fob1) (Saccharomyces cerevisiae). Briefly: competition. Particulars: 10 mM Tris pH 7.5, 1 mM EDTA, 0.1 M KCl, 0.1 mM DTT, 5% glycerol, 20 ul, 30 C 30 min; 6% PAGE in 0.5X TBE.

Regarding “TGCTAGTGTTTGCAAGATGGTGCTTTTTTTTCTTTAGATTGCCACGTTTCTGCTCCT (double strand) [RDT1 promoter probe (57 bp)]”, the binding entry in series [1] and in series [2] was “binds” throughout.
